Assay results published in doi:10.1101/2021.05.23.445348.

What was measured:
Test in all cases: ITC
[1] = biological target: SARS-CoV-2 RBD Y453F (SARS-CoV-2) (UniProt P0DTC2)
[2] = biological target: SARS-CoV-2 RBD T478I (SARS-CoV-2) (UniProt P0DTC2)
[3] = biological target: SARS-CoV-2 RBD K417N (SARS-CoV-2) (UniProt P0DTC2)

“CC12.1 single chain variable fragment (scFv)” gave a Kd [1] of 827 nM, a Kd [2] of 5.8 nM and a Kd [3] of 119 nM.
